We go through 2 substances from article PMC6006217.

The target in assay [1] is FcγRI on HEK293/FcγRI cells (human) (UniProt P12314).
The target of assay [2] is BGB-A317/IgG4_(S228P) (human). Nature of the assay: SPR; Biacore, human PD-1/His immobilised on a CM5 chip; the antibody captured on the PD-1/His surface; FcγRI injected over it. On the technique in general: SPR reads the build-up and loss of mass on a sensor chip optically.

Broadly, the Kd is the concentration at which binding is half-saturated. A higher Kd goes with weaker binding. Broadly, the koff is the first-order rate constant of dissociation. High values mean fast dissociation, low ones slow dissociation. As a reminder, the kon is the rate constant with which the complex forms. Low readings indicate slow association, high ones fast association.

Sequence of BGB-A317/IgG4_(S228P) (human) (heavy, as listed by the source, chain 1 of 2): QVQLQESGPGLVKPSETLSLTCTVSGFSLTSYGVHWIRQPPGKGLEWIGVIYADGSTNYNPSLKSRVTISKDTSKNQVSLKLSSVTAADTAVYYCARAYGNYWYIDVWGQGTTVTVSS
Sequence of BGB-A317/IgG4_(S228P) (human) (light, as listed by the source, chain 2 of 2): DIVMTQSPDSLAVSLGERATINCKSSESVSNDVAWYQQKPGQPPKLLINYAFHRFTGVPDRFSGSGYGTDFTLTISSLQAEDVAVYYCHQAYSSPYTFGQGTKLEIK

Turning to BGB-A317/IgG4_(S228P) (antibody), the IL-10 gene transcription (real-time PCR) in M2 macrophages seeded on PD-1-coated plates in the presence of the antibody, against huIgG baseline in assay [1] is less than 5 fold.
In assay [2], “human FcγRI (from UniProt P12314 16-292) (receptor)” returned a Ka of 3.57e+08 M⁻¹, a Kd of 2.8 nM, a dissociation rate constant (koff) of 0.00199 s⁻¹ and a kon of 712000 M⁻¹ s⁻¹.
